These results are taken from publication PMC12786156.

For the experiment, the target named is Xyloglucanase TpXEG12a from Talaromyces pinophilus (Talaromyces pinophilus). The experiment in a line: SEC; gel filtration on Superdex 75 Increase, 20 mM Tris-HCl, 150 mM NaCl, pH 7.5; calibrated with molecular mass standards. (SEC sorts molecules by how far they enter the pores of the column.)

As a reminder, the stoichiometry N is a count of units in the complex or per binding partner. On to “Xyloglucanase TpXEG12a from Talaromyces pinophilus (enzyme)”, for which the stoichiometry N was 2.
